According to article PMC5388508:

Legend:
[1] = target: integrin αIIbβ3 of human platelets (human (endogenous in platelets)) (UniProt P08514); experiment: flow cytometry on cells
[2] = target: integrin αIIbβ3 of human platelets (human (endogenous in platelets)) (UniProt P08514)

Rhodostomin (Rho), recombinant, ^48PRGDMP-^65PRYH (natural protein)
IC50 [1]: 0.0908 µM
IC50 of inhibition of platelet aggregation [2]: 0.0832 µM
